Measured values: patent US12097241B2, “Methods of treating kidney failure, and/or improving or stablizing renal function using modified relaxin polypeptides” (BRISTOL-MYERS SQUIBB COMPANY, priority 2017, dated 2024)
“Also recorded” adds a separate entry of the source.

Columns and labels:
[1] = system: renal tubular epithelial cells; test: Rat toxicity studies, kidney histopathology; assay type: in vivo, Sprague Dawley rats; conditions: rats
Description: FIGS. 7A-7D. PEG-related renal cortical tubule epithelial vacuolation in female Sprague Dawley rats. Kidney from rats treated subcutaneously (SQ) once a day with vehicle or relaxin analogs. […] FIG. 7A: Vehicle (150 mM Arg in 10 mM citrate buffer pH 5.5) SQ for 10 days. FIG. 7B: AQ1-PEG36-Glu-C13-COOH (1.5 kD PEG) SQ at 40 mg/kg/day for 7 days. FIG. 7C: AQ1-20-kDa-PEG (20 kD PEG) SQ at 15 mg/kg/day for 10 days. FIG. 7D: AQ1-GGGGS-Glu^γ (SEQ ID NO: 139)-C14-COOH SQ at 40 mg/kg for 7 days. Magnification 40×, H&E.
AQ1-20 kDa-PEG was given to rats by subcutaneous administration at doses of 1, 5, and 15 mg/kg/day for 10 days. Following the final dose animals were euthanized, dissected, and kidney histopathology was performed. […] In contrast, vacuoles were not observed in renal tubular epithelial cells of rats dosed with Vehicle (150 mM Arg in 10 mM citrate buffer pH 5.5) subcutaneously for 10 days (FIG. 7A).
AQ1-PEG36-Glu-C13-COOH was given to rats by subcutaneous administration at doses of 10 and 40 mg/kg/day for 7 days. Following the final dose animals were euthanized, dissected, and kidney histopathology was performed.
AQ1-GGGGS-Glu^γ (SEQ ID NO: 139)-C14-COOH was given to rats by subcutaneous administration at doses of 5, 20, and 40 mg/kg/day for 7 days. Following the final dose animals were euthanized, dissected, and kidney histopathology was performed.

Solubility observations = conditions: data not shown
[2] = In vivo pharmacokinetic (PK) studies in rats; parameters: species or system Sprague-Dawley rats; conditions: rat, male Sprague-Dawley rats, single SC dose 1.0 mg/kg, serum ELISA; for AUC(0-inf): read-out: Rat PK AUC Total; for level at time molar at 24 h: read-out: Rat PK C24
Procedure, shortened: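 Male Sprague-Dawley rats (n=3) given a single 1 mg/kg IV or SC dose of relaxin constructs in 20 mM histidine, 750 mM NaCl, pH 6.0; jugular serum sampled to 72 h. Serum relaxin by ELISA; Cmax, AUCinf, C24 and half-life from non-compartmental analysis of individual profiles.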

[3] = in vivo; cited from earlier work

Compound	vacuoles in renal tubular epithelial cells ([1]; subcutaneous 5, 20 and 40 mg/kg/day for 7 days, listed as AQ1-GGGGS-Glu^γ (SEQ ID NO: 139)-C14-COOH)	solubility profile (Solubility observations)	AUC(0-inf) [2] [µM·h]	level at time molar at 24 h [2] [nM]	vacuoles in renal tubular epithelial cells ([1]; subcutaneous 10 and 40 mg/kg/day for 7 days)	first-phase pharmacokinetic half-life [3] [min]
CC[C@H](C)[C@@H]1NC(=O)[C@H](C)NC(=O)[C@H]([C@@H](C)CC)NC(=O)[C@H](CCC(N)=O)NC(=O)[C@H](C)NC(=O)[C@H](CCCNC(=N)N)NC(=O)[C@H](C(C)C)NC(=O)[C@H](CC(C)C)NC(=O)[C@H](CCC(=O)O)NC(=O)[C@H](CCCNC(=N)N)NC(=O)CNC(=O)[C@@H](NC(=O)[C@H](CC(C)C)NC(=O)[C@H](CCCCN)NC(=O)[C@@H](NC(=O)[C@@H](NC(=O)[C@H](CCC(=O)O)NC(=O)[C@H](CCC(=O)O)NC(=O)[C@H](CCSC)NC(=O)[C@H](Cc2c[nH]c3ccccc23)NC(=O)[C@H](CO)NC(=O)[C@H](C)N)C(C)C)[C@@H](C)CC)CSSC[C@@H]2NC(=O)[C@@H](NC(=O)[C@H](CCCCN)NC(=O)[C@H](CC(N)=O)NC(=O)[C@H](C)NC(=O)[C@H](CC(C)C)NC(=O)[C@H](C)NC(=O)[C@H](CO)NC(=O)[C@H](Cc3ccc(O)cc3)NC(=O)[C@H](CC(C)C)NC(=O)[C@@H](N)Cc3ccc(/C(C)=N/OCCNC(=O)CNC(=O)CNC(=O)CNC(=O)CNC(=O)[C@H](CO)NC(=O)CC[C@H](NC(=O)CCCCCCCCCCCCCC(=O)O)C(=O)O)cc3)CSSC[C@H](NC(=O)CNC(=O)[C@H](C(C)C)NC(=O)[C@H](Cc3c[nH]cn3)NC2=O)C(=O)N[C@@H]([C@@H](C)O)C(=O)N[C@@H](CCCCN)C(=O)N[C@@H](CCCNC(=N)N)C(=O)N[C@@H](CO)C(=O)N[C@@H](CC(C)C)C(=O)N[C@@H](C)C(=O)N[C@@H](CCCNC(=N)N)C(=O)N[C@@H](Cc2ccccc2)C(=O)N[C@H](C(=O)O)CSSC[C@@H](C(=O)NCC(=O)N[C@@H](CCSC)C(=O)N[C@@H](CO)C(=O)N[C@H](C(=O)N[C@@H](Cc2c[nH]c3ccccc23)C(=O)N[C@@H](CO)C(=O)O)[C@@H](C)O)NC1=O [AQ1-GGGGS-Glu^γ-C14-COOH]	Vacuoles are not observed; also recorded: no evidence of test-article related vacuoles	favorable solubility profile	2.31	17		
CC[C@H](C)[C@@H]1NC(=O)[C@H](C)NC(=O)[C@H]([C@@H](C)CC)NC(=O)[C@H](CCC(N)=O)NC(=O)[C@H](C)NC(=O)[C@H](CCCNC(=N)N)NC(=O)[C@H](C(C)C)NC(=O)[C@H](CC(C)C)NC(=O)[C@H](CCC(=O)O)NC(=O)[C@H](CCCNC(=N)N)NC(=O)CNC(=O)[C@@H](NC(=O)[C@H](CC(C)C)NC(=O)[C@H](CCCCN)NC(=O)[C@@H](NC(=O)[C@@H](NC(=O)[C@H](CCC(=O)O)NC(=O)[C@H](CCC(=O)O)NC(=O)[C@H](CCSC)NC(=O)[C@H](Cc2c[nH]c3ccccc23)NC(=O)[C@H](CO)NC(=O)[C@H](C)N)C(C)C)[C@@H](C)CC)CSSC[C@@H]2NC(=O)[C@@H](NC(=O)[C@H](CCCCN)NC(=O)[C@H](CC(N)=O)NC(=O)[C@H](C)NC(=O)[C@H](CC(C)C)NC(=O)[C@H](C)NC(=O)[C@H](CO)NC(=O)[C@H](Cc3ccc(O)cc3)NC(=O)[C@H](CC(C)C)NC(=O)[C@@H](N)Cc3ccc(/C(C)=N/OCCNC(=O)CCOCCOCCOCCOCCOCCOCCOCCOCCOCCOCCOCCOCCOCCOCCOCCOCCOCCOCCOCCOCCOCCOCCOCCOCCOCCOCCOCCOCCOCCOCCOCCOCCOCCOCCOCCOCCNC(=O)CC[C@H](NC(=O)CCCCCCCCCCCCC(=O)O)C(=O)O)cc3)CSSC[C@H](NC(=O)CNC(=O)[C@H](C(C)C)NC(=O)[C@H](Cc3c[nH]cn3)NC2=O)C(=O)N[C@@H]([C@@H](C)O)C(=O)N[C@@H](CCCCN)C(=O)N[C@@H](CCCNC(=N)N)C(=O)N[C@@H](CO)C(=O)N[C@@H](CC(C)C)C(=O)N[C@@H](C)C(=O)N[C@@H](CCCNC(=N)N)C(=O)N[C@@H](Cc2ccccc2)C(=O)N[C@H](C(=O)O)CSSC[C@@H](C(=O)NCC(=O)N[C@@H](CCSC)C(=O)N[C@@H](CO)C(=O)N[C@H](C(=O)N[C@@H](Cc2c[nH]c3ccccc23)C(=O)N[C@@H](CO)C(=O)O)[C@@H](C)O)NC1=O [AQ1-PEG36-Glu-C13-COOH]			1	9.7	marked cortical tubular vacuolation; also recorded: Vacuoles were observed	
Serelaxin						5 to 15
